This is an account of results in PMC4631483, “The oxygenating constituent of 3,6-diketocamphane monooxygenase from the CAM plasmid of Pseudomonas putida: the first crystal structure of a type II Baeyer–Villiger monooxygenase” (Acta Crystallographica Section D: Biological Crystallography, 2015).

Series [1] concerns the molecule itself. Description: crystal structure; native apo enzyme; crystals from 50 mM PIPES pH 6.5, 50% ammonium sulfate, room temperature; P212121, two subunits in the asymmetric unit; 1.9 A.
Series [2] concerns the molecule itself. Briefly: crystal structure; overexpressed enzyme co-crystallised with 20 mM FMN, 5 mM NADH, 5 mM (-)-camphor; 100 mM HEPES pH 7.0, 20% PEG 3350, 18 C; P212121, one dimer in the asymmetric unit; 1.9 A.

B1: native 3,6-diketocamphane 1,6-monooxygenase, oxygenating component (enzyme, Pseudomonas putida NCIMB 10007, UniProt D7UER1 1-378, looked up)
chain: MAMETGLIFHPYMRPGRSARQTFDWGIKSAVQADSVGIDSMMISEHASQIWENIPNPELLIAAAALQTKNIKFAPMAHLLPHQHPAKLATMIGWLSQILEGRYFLGIGAGAYPQASYMHGIRNAGQSNTATGGEETKNLNDMVRESLFIMEKIWKREPFFHEGKYWDAGYPEELEGEEGDEQHKLADFSPWGGKAPEIAVTGFSYNSPSMRLAGERNFKPVSIFSGLDALKRHWEVYSEAAIEAGHTPDRSRHAVSHTVFCADTDKEAKRLVMEGPIGYCFERYLIPIWRRFGMMDGYAKDAGIDPVDADLEFLVDNVFLVGSPDTVTEKINALFEATGGWGTLQVEAHDYYDDPAPWFQSLELISKEVAPKILLPKR
notes: 3,6-diketocamphane 1,6-monooxygenase (3,6-DKMO; EC 1.14.13.-), oxygenating component, encoded on the CAM plasmid of Pseudomonas putida NCIMB 10007; monomer 42.3 kDa; residues up to 378 are numbered in the model (A1, A128-133, A176-180, A377-378, B1, B127-135, B176-179 not modelled); also called 3,6-DKMO; native 3,6-DKMO
Consider B1, for which, in series [1], the stoichiometry N (usually the number of molecules, sites or subunits per partner or assembly) came out at 2.

B2: recombinant (overexpressed) 3,6-diketocamphane 1,6-monooxygenase, oxygenating component, N-terminally hexahistidine-tagged (enzyme, Pseudomonas putida)
chain: MAMETGLIFHPYMRPGRSARQTFDWGIKSAVQADSVGIDSMMISEHASQIWENIPNPELLIAAAALQTKNIKFAPMAHLLPHQHPAKLATMIGWLSQILEGRYFLGIGAGAYPQASYMHGIRNAGQSNTATGGEETKNLNDMVRESLFIMEKIWKREPFFHEGKYWDAGYPEELEGEEGDEQHKLADFSPWGGKAPEIAVTGFSYNSPSMRLAGERNFKPVSIFSGLDALKRHWEVYSEAAIEAGHTPDRSRHAVSHTVFCADTDKEAKRLVMEGPIGYCFERYLIPIWRRFGMMDGYAKDAGIDPVDADLEFLVDNVFLVGSPDTVTEKINALFEATGGWGTLQVEAHDYYDDPAPWFQSLELISKEVAPKILLPKR
notes: 3,6-diketocamphane 1,6-monooxygenase (3,6-DKMO), oxygenating component, the 3,6-DKMO gene of the CAM plasmid of Pseudomonas putida in pET-28b; residues A126-135, A176-179, A377-378, B125-135, B176-179 not modelled in the FMN complex; Crystallised with 20 mM FMN, 5 mM NADH and 5 mM (-)-camphor; only FMN (occupancy 0.6) seen; also called overexpressed 3,6-DKMO; recombinant 3,6-DKMO; source: E. coli …
As for B2, in series [2], the “stoichiometry N” value was 2.
